Results on one substance are retold here after paper PMC2584968.

This experiment deals with three-disulphide variant of core gp120 (HXBc2) (HIV-1 (HXBc2)). Put plainly: SPR.

The substance CD4-induced antibody 17b showed a fold increase in on-rate (through stabilization) of 95 fold.
